# Test results reported in publication PMC9482650, “Quantitative fragmentomics allow affinity mapping of interactomes” (Nature Communications, 2022).
# T1: LNX2_3, Q8N448
# T1 sequence (Q8N448 463-564, limits assumed, looked up): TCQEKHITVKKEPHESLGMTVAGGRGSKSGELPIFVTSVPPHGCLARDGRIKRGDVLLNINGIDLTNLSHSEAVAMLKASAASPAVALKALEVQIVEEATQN
# T2: LRRC7, Q96NW7
# T2 sequence (Q96NW7 1440-1537, limits assumed, looked up): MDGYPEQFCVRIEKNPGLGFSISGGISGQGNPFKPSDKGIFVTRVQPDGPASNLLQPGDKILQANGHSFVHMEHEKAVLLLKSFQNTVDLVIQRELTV
# T3: GRIP1_2, Q9Y3R0
# T3 sequence (Q9Y3R0 145-248, limits assumed, looked up): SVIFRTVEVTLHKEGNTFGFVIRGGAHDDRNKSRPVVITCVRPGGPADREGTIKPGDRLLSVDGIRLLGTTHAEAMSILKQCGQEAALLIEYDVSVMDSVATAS
# T4: SNTA1, Q13424
# T4 sequence (Q13424 82-180, limits assumed, looked up): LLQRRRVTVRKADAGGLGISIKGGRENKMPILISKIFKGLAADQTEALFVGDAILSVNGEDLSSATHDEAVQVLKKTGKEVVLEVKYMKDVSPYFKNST
# T5: RADIL, Q96JH8
# T5 sequence (Q96JH8 971-1071, limits assumed, looked up): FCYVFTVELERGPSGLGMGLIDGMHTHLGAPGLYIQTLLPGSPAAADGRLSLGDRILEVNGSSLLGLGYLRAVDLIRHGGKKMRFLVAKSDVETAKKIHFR
# T6: MPDZ_12, O75970
# T6 sequence (O75970 1857-1958, limits assumed, looked up): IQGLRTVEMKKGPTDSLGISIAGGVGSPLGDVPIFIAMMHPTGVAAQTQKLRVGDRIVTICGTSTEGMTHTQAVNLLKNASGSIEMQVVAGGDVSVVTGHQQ
# T7: APBA3_1, O96018
# T7 sequence (O96018 389-490, limits assumed, looked up): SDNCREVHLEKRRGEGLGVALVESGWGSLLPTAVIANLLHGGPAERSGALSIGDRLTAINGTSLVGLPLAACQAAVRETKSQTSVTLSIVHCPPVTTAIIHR
# T8: PDZD2_2, O15018
# T8 sequence (O15018 329-429, limits assumed, looked up): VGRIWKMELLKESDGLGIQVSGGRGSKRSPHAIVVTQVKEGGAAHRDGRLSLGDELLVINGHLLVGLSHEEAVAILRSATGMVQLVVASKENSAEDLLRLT
# T9: SHANK1, Q9Y566
# T9 sequence (Q9Y566 658-767, limits assumed, looked up): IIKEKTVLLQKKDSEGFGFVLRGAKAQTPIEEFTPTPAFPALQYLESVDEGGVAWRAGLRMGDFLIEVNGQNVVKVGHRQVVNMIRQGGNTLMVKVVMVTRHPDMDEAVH
# T10: GRIP1_7, Q9Y3R0
# T10 sequence (Q9Y3R0 999-1096, limits assumed, looked up): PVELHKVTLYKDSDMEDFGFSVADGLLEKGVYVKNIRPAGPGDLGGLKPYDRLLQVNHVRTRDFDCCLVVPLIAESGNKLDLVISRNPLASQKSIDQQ
# Legend:
# Assay in all cases: holdup assay
# Parameters in all cases: key: below the threshold = too weak to quantify, mostly under pKd 3.1 to 4
# Details in all cases: plain residues with an end cap or a label only (N-terminal biotin on a linker: ttds)
# NOS1, P29475 = biological target: NOS1, P29475
# DLG1_3, Q12959 = biological target: DLG1_3, Q12959
# LNX2_3, Q8N448 = biological target: T1, LNX2_3, Q8N448
# SNX27, Q96L92 = biological target: SNX27, Q96L92
# Inadl_1, Q8NI35 = biological target: Inadl_1, Q8NI35
# PARD3_3, Q8TEW0 = biological target: PARD3_3, Q8TEW0
# LRRC7, Q96NW7 = biological target: T2, LRRC7, Q96NW7
# DLG4_2, P78352 = biological target: DLG4_2, P78352
# DLG1_1, Q12959 = biological target: DLG1_1, Q12959
# GRIP1_2, Q9Y3R0 = biological target: T3, GRIP1_2, Q9Y3R0
# SNTA1, Q13424 = biological target: T4, SNTA1, Q13424
# PICK1, Q9NRD5 = biological target: PICK1, Q9NRD5
# GIPC2, Q8TF65 = biological target: GIPC2, Q8TF65
# GRIP2_6, Q9C0E4 = biological target: GRIP2_6, Q9C0E4
# RADIL, Q96JH8 = biological target: T5, RADIL, Q96JH8
# DLG1_2, Q12959 = biological target: DLG1_2, Q12959
# GRASP, Q7Z6J2 = biological target: GRASP, Q7Z6J2
# MPDZ_12, O75970 = biological target: T6, MPDZ_12, O75970
# Inadl_3, Q8NI35 = biological target: Inadl_3, Q8NI35
# APBA3_1, O96018 = biological target: T7, APBA3_1, O96018
# PDZD2_2, O15018 = biological target: T8, PDZD2_2, O15018
# DLG2_2, Q15700 = biological target: DLG2_2, Q15700
# SHANK1, Q9Y566 = biological target: T9, SHANK1, Q9Y566
# LIMK2, P53671 = biological target: LIMK2, P53671
# FRMPD4, Q14CM0 = biological target: FRMPD4, Q14CM0
# FRMPD2_1, Q68DX3 = biological target: FRMPD2_1, Q68DX3
# GRIP1_7, Q9Y3R0 = biological target: T10, GRIP1_7, Q9Y3R0
# GRIP2_7, Q9C0E4 = biological target: GRIP2_7, Q9C0E4
# Sequence of GRIP2_7, Q9C0E4 (Q9C0E4 934-1023): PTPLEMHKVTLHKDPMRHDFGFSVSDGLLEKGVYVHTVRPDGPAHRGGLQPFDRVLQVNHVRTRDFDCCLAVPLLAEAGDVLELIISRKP
# Sequence of GIPC2, Q8TF65 (Q8TF65 112-203): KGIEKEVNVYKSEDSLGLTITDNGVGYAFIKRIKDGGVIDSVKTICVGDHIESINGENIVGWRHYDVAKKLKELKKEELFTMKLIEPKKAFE
# Sequence of FRMPD2_1, Q68DX3 (Q68DX3 770-861): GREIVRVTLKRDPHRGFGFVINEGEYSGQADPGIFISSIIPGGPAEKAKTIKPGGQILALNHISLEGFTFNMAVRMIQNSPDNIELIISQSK
# Sequence of Inadl_1, Q8NI35 (Q8NI35 113-229): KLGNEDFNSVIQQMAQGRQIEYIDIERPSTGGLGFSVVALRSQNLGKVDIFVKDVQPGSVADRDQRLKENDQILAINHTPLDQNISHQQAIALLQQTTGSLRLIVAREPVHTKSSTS
# Sequence of Inadl_3, Q8NI35 (Q8NI35 359-469): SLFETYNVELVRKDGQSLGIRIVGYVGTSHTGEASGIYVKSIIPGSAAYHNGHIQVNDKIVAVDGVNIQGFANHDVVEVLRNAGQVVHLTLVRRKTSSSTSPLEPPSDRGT
# Sequence of PICK1, Q9NRD5 (Q9NRD5 17-115): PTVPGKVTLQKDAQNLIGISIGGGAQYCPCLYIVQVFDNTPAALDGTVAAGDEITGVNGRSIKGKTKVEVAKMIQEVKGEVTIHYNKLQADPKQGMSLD
# Sequence of DLG2_2, Q15700 (Q15700 189-283): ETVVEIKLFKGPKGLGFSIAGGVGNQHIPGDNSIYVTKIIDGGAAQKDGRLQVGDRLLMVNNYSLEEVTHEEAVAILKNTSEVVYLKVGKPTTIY
# Sequence of GRIP2_6, Q9C0E4 (Q9C0E4 648-740): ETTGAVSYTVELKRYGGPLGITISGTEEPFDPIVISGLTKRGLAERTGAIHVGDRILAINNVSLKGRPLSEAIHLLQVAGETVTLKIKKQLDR
# Sequence of DLG4_2, P78352 (P78352 155-259): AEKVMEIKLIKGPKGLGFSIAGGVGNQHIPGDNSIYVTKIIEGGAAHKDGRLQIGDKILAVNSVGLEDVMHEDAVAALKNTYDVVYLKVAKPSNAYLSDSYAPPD
# Sequence of GRASP, Q7Z6J2 (Q7Z6J2 96-193): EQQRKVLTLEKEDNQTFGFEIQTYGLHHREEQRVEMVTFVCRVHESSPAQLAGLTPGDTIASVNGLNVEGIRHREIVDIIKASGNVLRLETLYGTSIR
# Sequence of LIMK2, P53671 (P53671 143-248): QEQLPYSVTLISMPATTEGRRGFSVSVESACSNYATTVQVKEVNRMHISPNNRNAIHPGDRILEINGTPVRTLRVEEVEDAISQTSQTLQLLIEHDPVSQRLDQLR
# Sequence of FRMPD4, Q14CM0 (Q14CM0 67-160): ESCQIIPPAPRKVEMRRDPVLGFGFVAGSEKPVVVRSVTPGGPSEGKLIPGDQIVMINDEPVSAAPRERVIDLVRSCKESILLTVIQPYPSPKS
# Sequence of NOS1, P29475 (P29475 9-101): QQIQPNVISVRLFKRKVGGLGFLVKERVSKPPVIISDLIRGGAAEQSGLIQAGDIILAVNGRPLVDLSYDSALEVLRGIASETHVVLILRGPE
# Sequence of PARD3_3, Q8TEW0 (Q8TEW0 582-685): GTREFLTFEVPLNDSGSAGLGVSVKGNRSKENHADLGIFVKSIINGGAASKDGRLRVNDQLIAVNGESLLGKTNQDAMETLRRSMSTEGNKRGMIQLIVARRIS
Binder,"pKd (NOS1, P29475)","pKd (DLG1_3, Q12959)","pKd (LNX2_3, Q8N448)","pKd (SNX27, Q96L92)","pKd (Inadl_1, Q8NI35)","pKd (PARD3_3, Q8TEW0)","pKd (LRRC7, Q96NW7)","pKd (DLG4_2, P78352)","pKd (DLG1_1, Q12959)","pKd (GRIP1_2, Q9Y3R0)","pKd (SNTA1, Q13424)","pKd (PICK1, Q9NRD5)","pKd (GIPC2, Q8TF65)","pKd (GRIP2_6, Q9C0E4)","pKd (RADIL, Q96JH8)","pKd (DLG1_2, Q12959)","pKd (GRASP, Q7Z6J2)","pKd (MPDZ_12, O75970)","pKd (Inadl_3, Q8NI35)","pKd (APBA3_1, O96018)",further results
"TVASEKESVM [SLC1A5, Q15758]",below the threshold,3.55,below the threshold,5.29,3.64,below the threshold,below the threshold,below the threshold,below the threshold,below the threshold,3.81,below the threshold,3.54,below the threshold,below the threshold,below the threshold,below the threshold,below the threshold,below the threshold,below the threshold,"pKd (PDZD2_2, O15018): below the threshold; pKd (DLG2_2, Q15700): below the threshold; pKd (SHANK1, Q9Y566): below the threshold; pKd (LIMK2, P53671): below the threshold; pKd (FRMPD4, Q14CM0): below the threshold; pKd (FRMPD2_1, Q68DX3): below the threshold; pKd (GRIP1_7, Q9Y3R0): 3.67; pKd (GRIP2_7, Q9C0E4): below the threshold"
"VLRLQSETSV [VANGL1, Q8TAA9]",3.75,4.63,below the threshold,5.7,below the threshold,below the threshold,below the threshold,4.71,4.45,below the threshold,4.52,below the threshold,3.75,below the threshold,below the threshold,4.86,below the threshold,below the threshold,below the threshold,below the threshold,"pKd (PDZD2_2, O15018): 4.12; pKd (DLG2_2, Q15700): 4.58; pKd (SHANK1, Q9Y566): 3.77; pKd (LIMK2, P53671): below the threshold; pKd (FRMPD4, Q14CM0): below the threshold; pKd (FRMPD2_1, Q68DX3): below the threshold; pKd (GRIP1_7, Q9Y3R0): 3.73; pKd (GRIP2_7, Q9C0E4): below the threshold"
"PKTPPTDTSV [KIR3DL3, Q8N743]",below the threshold,below the threshold,below the threshold,4.28,3.57,below the threshold,below the threshold,4.22,4.02,below the threshold,below the threshold,below the threshold,below the threshold,below the threshold,below the threshold,3.75,below the threshold,below the threshold,below the threshold,below the threshold,"pKd (PDZD2_2, O15018): 4; pKd (DLG2_2, Q15700): below the threshold; pKd (SHANK1, Q9Y566): below the threshold; pKd (LIMK2, P53671): below the threshold; pKd (FRMPD4, Q14CM0): 3.78; pKd (FRMPD2_1, Q68DX3): below the threshold; pKd (GRIP1_7, Q9Y3R0): below the threshold; pKd (GRIP2_7, Q9C0E4): below the threshold"
"SSRTRRETQL [HPV16-E6, P03126]",4.08,4.7,below the threshold,4.91,below the threshold,3.65,3.9,4.66,4.67,below the threshold,4.75,below the threshold,below the threshold,below the threshold,3.65,5.06,below the threshold,below the threshold,below the threshold,below the threshold,"pKd (PDZD2_2, O15018): below the threshold; pKd (DLG2_2, Q15700): 4.93; pKd (SHANK1, Q9Y566): 3.68; pKd (LIMK2, P53671): below the threshold; pKd (FRMPD4, Q14CM0): 3.83; pKd (FRMPD2_1, Q68DX3): 4.12; pKd (GRIP1_7, Q9Y3R0): below the threshold; pKd (GRIP2_7, Q9C0E4): below the threshold"
